The experiment addresses T1, KBTBD4 (construct for structure determination) (human), Q9NVX7.
T1 chain: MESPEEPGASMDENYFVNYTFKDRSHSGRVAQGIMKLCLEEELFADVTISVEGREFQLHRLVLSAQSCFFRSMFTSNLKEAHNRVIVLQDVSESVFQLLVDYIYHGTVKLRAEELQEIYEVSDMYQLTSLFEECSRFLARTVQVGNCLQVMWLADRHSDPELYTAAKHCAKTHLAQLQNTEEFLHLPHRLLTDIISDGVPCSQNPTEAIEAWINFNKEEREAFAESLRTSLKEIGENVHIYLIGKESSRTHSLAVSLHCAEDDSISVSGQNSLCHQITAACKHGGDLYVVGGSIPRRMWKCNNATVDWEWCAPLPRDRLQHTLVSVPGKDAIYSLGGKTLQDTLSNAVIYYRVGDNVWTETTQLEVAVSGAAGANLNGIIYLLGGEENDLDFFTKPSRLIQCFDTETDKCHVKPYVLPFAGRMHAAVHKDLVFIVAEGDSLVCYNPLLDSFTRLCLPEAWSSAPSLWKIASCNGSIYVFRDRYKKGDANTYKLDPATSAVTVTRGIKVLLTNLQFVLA
In words: cryo-EM structure. Particulars: remark: other sources report otherwise.

B1: KBTBD4 (construct for structure determination), Q9NVX7-1 1-518 (natural protein)
chain: MESPEEPGASMDENYFVNYTFKDRSHSGRVAQGIMKLCLEEELFADVTISVEGREFQLHRLVLSAQSCFFRSMFTSNLKEAHNRVIVLQDVSESVFQLLVDYIYHGTVKLRAEELQEIYEVSDMYQLTSLFEECSRFLARTVQVGNCLQVMWLADRHSDPELYTAAKHCAKTHLAQLQNTEEFLHLPHRLLTDIISDGVPCSQNPTEAIEAWINFNKEEREAFAESLRTSLKEIGENVHIYLIGKESSRTHSLAVSLHCAEDDSISVSGQNSLCHQITAACKHGGDLYVVGGSIPRRMWKCNNATVDWEWCAPLPRDRLQHTLVSVPGKDAIYSLGGKTLQDTLSNAVIYYRVGDNVWTETTQLEVAVSGAAGANLNGIIYLLGGEENDLDFFTKPSRLIQCFDTETDKCHVKPYVLPFAGRMHAAVHKDLVFIVAEGDSLVCYNPLLDSFTRLCLPEAWSSAPSLWKIASCNGSIYVFRDRYKKGDANTYKLDPATSAVTVTRGIKVLLTNLQFVLA
Regarding B1, the stoichiometry N (in general, a count of units in the complex or per binding partner) worked out at 2.

The values above are taken from paper doi:10.1101/2024.05.14.593897.
